This is an account of results in US20180250364A1, “Methods of Using Interleukin-10 for Treating Diseases and Disorders” (published 2018).

For experiment [1], the target named is T1, mIL-10 receptors (R1 and R2) (mouse, UniProt Q61727).
T1 sequence 1: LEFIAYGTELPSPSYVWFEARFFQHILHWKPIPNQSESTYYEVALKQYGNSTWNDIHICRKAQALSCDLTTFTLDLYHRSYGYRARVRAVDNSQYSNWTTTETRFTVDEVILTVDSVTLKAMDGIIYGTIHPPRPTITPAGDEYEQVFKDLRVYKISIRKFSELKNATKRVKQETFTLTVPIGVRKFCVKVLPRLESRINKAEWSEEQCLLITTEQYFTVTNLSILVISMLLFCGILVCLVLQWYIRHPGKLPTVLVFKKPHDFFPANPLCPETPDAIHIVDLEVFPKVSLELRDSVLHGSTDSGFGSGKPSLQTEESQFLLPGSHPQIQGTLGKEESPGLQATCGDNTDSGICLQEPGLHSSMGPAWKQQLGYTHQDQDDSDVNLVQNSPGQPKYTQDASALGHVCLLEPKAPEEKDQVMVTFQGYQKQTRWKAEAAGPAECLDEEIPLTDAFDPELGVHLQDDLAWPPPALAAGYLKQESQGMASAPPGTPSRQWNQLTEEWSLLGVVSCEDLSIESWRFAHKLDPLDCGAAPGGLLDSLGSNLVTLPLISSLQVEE
T1 sequence 2: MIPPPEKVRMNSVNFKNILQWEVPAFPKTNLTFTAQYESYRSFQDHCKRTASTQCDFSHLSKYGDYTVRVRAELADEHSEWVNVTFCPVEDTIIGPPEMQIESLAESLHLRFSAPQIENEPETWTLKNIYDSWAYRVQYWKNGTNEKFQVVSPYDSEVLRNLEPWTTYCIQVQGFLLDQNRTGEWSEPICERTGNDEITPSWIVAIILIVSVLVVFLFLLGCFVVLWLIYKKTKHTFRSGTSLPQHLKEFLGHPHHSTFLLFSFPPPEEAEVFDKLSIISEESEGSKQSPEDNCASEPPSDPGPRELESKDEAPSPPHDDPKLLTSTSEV
Put plainly: cell-based or functional assay.

For experiment [2], the target named is T1, mIL-10 receptors (R1 and R2). Put plainly: cell-based or functional assay. This is another data set of the same source.

B1: Murine IL-10 (ligand)
chain: SRGQYSREDNNCTHFPVGQSHMLLELRTAFSQVKTFFQTKDQLDNILLTDSLMQDFKGYLGCQALSEMIQFYLVEVMPQAEKHGPEIKEHLNSLGEKLKTLRMRLRRCHRFLPCENKSKAVEQVKSDFNKLQDQGVYKAMNEFDIFINCIEAYMMIKMKS
On to B1, for which the “EC50 (ng/mL) in MC/9 Assay” value in experiment [1] is 0.571 ng/mL.

B2: PEG-mIL-10 (ligand)
chain: B1 chain
modifications: pegylated; prepared with the SC-PEG-12K linker; attachment residue not stated
As to B2, the “EC50 (ng/mL) in MC/9 Assay” value in experiment [1] was 4.04 ng/mL. In experiment [2], the “MC/9 proliferation (Alamar Blue), specific activity” value is approximately 7 fold.
